Experiments:
[1] = molecular target: T1, human Integrin Associated Protein (IAP) expressed on mouse leukemia cell line L1210 (human, UniProt Q08722 19-323); assay: flow cytometry, COS7 supernatant on L1210 cells expressing human IAP, anti-FLAG detection
T1 construct: whole, on cells; also called human IAP; hIAP/L1210
Experimental: Flow cytometry was performed using the culture supernatants of COS7 cells prepared in Example 6.3 (1) to measure the binding of the MABL2-scFVs and sc(Fv)₂ to human Integrin Associated Protein (IAP) antigen. The culture supernatants to be tested or a culture supernatant of COS7 cells as a control was added to 2×10⁵ cells of the mouse leukemia cell line L1210 expressing human IAP. After incubating on ice and washing, 10 μg/mL of the mouse anti-FLAG antibody (SIGMA) was added and then the cells were incubated and washed. Then, the FITC labeled anti-mouse IgG antibody (BECTON DICKINSON) was added thereto and the cells were incubated and washed again. The fluorescence intensity was measured using the FACScan apparatus (BECTON DICKINSON).

[2] = molecular target: T1, human Integrin Associated Protein (IAP) …; assay: flow cytometry, COS7 supernatant on L1210 cells expressing human IAP
Experimental: Flow cytometry was performed using the aforementioned culture supernatant of COS7 cells to measure binding to the antigen. The culture supernatant of the COS7 cells expressing the chimera MABL-1 antibody or the COS7 cells expressing the chimera MABL-2 antibody, or human IgG antibody (SIGMA) as a control was added to 4×10⁵ cells of mouse leukemia cell line L1210 expressing human IAP and incubated on ice. After washing, the FITC-labeled anti-human IgG antibody (Cappel) was added thereto. After incubating and washing, the fluorescence intensity thereof was measured using the FACScan apparatus (BECTON DICKINSON).

[3] = molecular target: secretion-type human IAP antigen (human, UniProt Q08722 19-142, limits assumed); assay: competitive ELISA on captured secretion-type human IAP; competitor biotinized MABL-2 antibody
Experimental: The binding activity of the reconstructed single-chain Fv of antibody MABL-2 was measured based on the inhibiting activity against the binding of mouse monoclonal antibodies to the antigen.
The anti-FLAG antibody adjusted to 1 μg/ml was added to each well on 96-well plate and incubated at 37° C. for 2 hours. After washing, blocking was performed with 1% BSA-PBS. After incubating and washing at a room temperature, the culture supernatant of COS7 cells into which the secretion-type human IAP antigen gene (SEQ ID No. 26) had been introduced was diluted with PBS into twofold volume and added to each well. After incubating and washing at a room temperature, a mixture of 50 μl of the biotinized MABL-2 antibody adjusted to 100 ng/ml and 50 μl of sequentially diluted supernatant of the COS7 cells expressing the reconstructed single-chain Fv of antibody MABL-2 were added into each well. After incubating and washing at a room temperature, the alkaline phosphatase-conjugated streptoavidin (Zymed) was added into each well. After incubating and washing at a room temperature, the substrate solution (SIGMA) was added and absorbance of the reaction mixture in each well was measured at 405 nm.

T1 sequence (Q08722 19-323): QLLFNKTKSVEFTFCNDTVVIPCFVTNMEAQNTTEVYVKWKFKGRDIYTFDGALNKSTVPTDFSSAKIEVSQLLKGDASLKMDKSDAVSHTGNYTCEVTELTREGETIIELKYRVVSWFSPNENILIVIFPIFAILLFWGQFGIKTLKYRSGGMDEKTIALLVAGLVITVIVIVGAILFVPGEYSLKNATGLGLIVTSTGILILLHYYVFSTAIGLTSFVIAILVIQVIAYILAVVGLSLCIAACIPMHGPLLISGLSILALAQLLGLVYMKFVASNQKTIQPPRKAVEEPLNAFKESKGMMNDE
secretion-type human IAP antigen, sequence (Q08722 other isoform, or with tags, fused parts or gaps limits assumed): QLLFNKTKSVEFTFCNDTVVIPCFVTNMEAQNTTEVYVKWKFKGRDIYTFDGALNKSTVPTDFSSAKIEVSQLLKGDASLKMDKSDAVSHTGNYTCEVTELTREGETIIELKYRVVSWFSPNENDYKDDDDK

| binding result [1] | binding result [2] | binding result [3] | Binder |
| --- | --- | --- | --- |
| binds |  | binds | reconstructed single-chain Fv of antibody MABL-2 (MABL2-scFv), from pCHOM2-transfected COS7 cells (scFv, Tested as COS7 culture supernatant; also called MABL2-scFv/COS7) scFv: QVQLQQSGPELVKPGASVKMSCKASGYTFANHVIHWVKQKPGQGLEWIGYIYPYNDGTKYNEKFKDKATLTSDKSSTTAYMDLSSLASEDSAVYYCARGGYYTYDDWGQGTTLTVSSGGGGSGGGGSGGGGSDVVMTQSPLSLPVSLGDQASISCRSSQSLVHSNGKTYLHWYLQKPGQSPKLLIYKVSNRFSGVPDRFSGSGSVTDFTLMISRVEAEDLGVYFCSQSTHVPYTFGGGTKLEIKDYKDDDDK |
| binds |  |  | MABL2-scFv <HL-0> (scFv, [H chain V]-[L chain V] without a linker, with a leader at the 5' end and FLAG at the C-terminus; COS7 culture supernatant; also called CF2HL-0/pCOS1) scFv: QVQLQQSGPELVKPGASVKMSCKASGYTFANHVIHWVKQKPGQGLEWIGYIYPYNDGTKYNEKFKDKATLTSDKSSTTAYMDLSSLASEDSAVYYCARGGYYTYDDWGQGTTLTVSSDVVMTQSPLSLPVSLGDQASISCRSSQSLVHSNGKTYLHWYLQKPGQSPKLLIYKVSNRFSGVPDRFSGSGSVTDFTLMISRVEAEDLGVYFCSQSTHVPYTFGGGTKLEIKDYKDDDDK |
| binds |  |  | antibody MABL-2 sc(Fv)2, reconstructed polypeptide comprising two H chain V regions and two L chain V regions (other, Single chain VH-VL-VH-VL from plasmid pCHOM2(Fv)2, with a C-terminal FLAG; Eluted at the position of the monomer in gel filtration) QVQLQQSGPELVKPGASVKMSCKASGYTFANHVIHWVKQKPGQGLEWIGYIYPYNDGTKYNEKFKDKATLTSDKSSTTAYMDLSSLASEDSAVYYCARGGYYTYDDWGQGTTLTVSSGGGGSGGGGSGGGGSDVVMTQSPLSLPVSLGDQASISCRSSQSLVHSNGKTYLHWYLQKPGQSPKLLIYKVSNRFSGVPDRFSGSGSVTDFTLMISRVEAEDLGVYFCSQSTHVPYTFGGGTKLEIKGGGGSGGGGSGGGGSVDSQVQLQQSGPELVKPGASVKMSCKASGYTFANHVIHWVKQKPGQGLEWIGYIYPYNDGTKYNEKFKDKATLTSDKSSTTAYMDLSSLASEDSAVYYCARGGYYTYDDWGQGTTLTVSSGGGGSGGGGSGGGGSDVVMTQSPLSLPVSLGDQASISCRSSQSLVHSNGKTYLHWYLQKPGQSPKLLIYKVSNRFSGVPDRFSGSGSVTDFTLMISRVEAEDLGVYFCSQSTHVPYTFGGGTKLEIKDYKDDDDK |

The remaining lines, values behind:

| Binder | binding result [1] | binding result [2] | binding result [3] |
| --- | --- | --- | --- |
| MABL2-scFv <LH-0> (scFv, [L chain V]-[H chain V] without a linker, with a leader at the 5' end and FLAG at the C-terminus; COS7 culture supernatant; also called CF2LH-0/pCOS1) scFv: DVVMTQSPLSLPVSLGDQASISCRSSQSLVHSNGKTYLHWYLQKPGQSPKLLIYKVSNRFSGVPDRFSGSGSVTDFTLMISRVEAEDLGVYFCSQSTHVPYTFGGGTKLEIKQVQLQQSGPELVKPGASVKMSCKASGYTFANHVIHWVKQKPGQGLEWIGYIYPYNDGTKYNEKFKDKATLTSDKSSTTAYMDLSSLASEDSAVYYCARGGYYTYDDWGQGTTLTVSSDYKDDDDK | binds |  |  |
| chimera MABL-1 antibody (antibody, V domains shown, Mouse MABL-1 V regions cloned into HEF-kappa and HEF-gamma expression vectors carrying human C regions (WO92/19759); Tested as COS7 culture supernatant) VH: QVQLQQSGPDLVKPGASVKMSCKASGYTFVNHVMHWVKQKPGQGLEWIGYIYPYNDGTKYNEKFKGKATLTSEKSSSAAYMELSSLASEDSAVYYCARGGYYSYDDWGQGTTLTVSS VL: DVVMTQTPLSLPVSLGDQASISCRSSQSLLHSKGNTYLQWYLQKPGQSPKLLIYKVSNRFSGVPDRFSGSGSGTDFTLKISRVEAEDLGVYFCSQSTHVPYTSGGGTKLEIK |  | binds |  |
| chimera MABL-2 antibody (antibody, V domains shown, Mouse MABL-2 V regions cloned into HEF-kappa and HEF-gamma expression vectors carrying human C regions (WO92/19759); Tested as COS7 culture supernatant) VH: QVQLQQSGPELVKPGASVKMSCKASGYTFANHVIHWVKQKPGQGLEWIGYIYPYNDGTKYNEKFKDKATLTSDKSSTTAYMDLSSLASEDSAVYYCARGGYYTYDDWGQGTTLTVSS VL: DVVMTQSPLSLPVSLGDQASISCRSSQSLVHSNGKTYLHWYLQKPGQSPKLLIYKVSNRFSGVPDRFSGSGSVTDFTLMISRVEAEDLGVYFCSQSTHVPYTFGGGTKLEIK |  | binds |  |

Reference: patent US20040073013A1 (Chugai, published 2004)
